From publication PMC9960230 come the findings set out here.

For orientation: Kd means a measure of binding affinity in units of concentration. Broadly, the koff is the rate constant with which the complex falls apart.

Common to all, as to conditions: domain or fragment
Assay [1] has as its target Recombinant human FcRn conjugated with biotin (human) (UniProt P55899). The assay is described as follows: SPR; heme-ox-exposed Fc, pH 5.4. Background: In SPR one partner is held on a chip, and binding of the other changes the refractive index at the surface.
The target is the same in assay [2]. As to the kind of experiment: SPR; heme (Fe3+)-exposed Fc, pH 5.4.
The target is the same in assay [3]. As to the kind of experiment: SPR; native Fc, pH 5.4.

Sequence of Recombinant human FcRn conjugated with biotin (human) (P55899 24-297): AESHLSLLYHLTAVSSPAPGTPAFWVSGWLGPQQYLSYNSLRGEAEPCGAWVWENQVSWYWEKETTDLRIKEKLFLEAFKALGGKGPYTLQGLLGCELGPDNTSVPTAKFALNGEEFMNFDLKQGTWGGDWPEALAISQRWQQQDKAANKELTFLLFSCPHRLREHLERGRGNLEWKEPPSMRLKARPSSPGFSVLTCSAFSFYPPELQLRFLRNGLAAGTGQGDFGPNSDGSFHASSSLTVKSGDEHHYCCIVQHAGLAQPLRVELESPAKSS

In the case of “Fc-γ fragments obtained by papain digestion of polyclonal human IgG”, the results for the Kd in assay [1], in assay [2] and in assay [3] were 8 nM, 7.7 nM and 9.1 nM, respectively. Moreover, the koff amounted to 0.00367 s⁻¹ in assay [1], 0.004 s⁻¹ in assay [2] and 0.00415 s⁻¹ in assay [3].
